Here are results for 9 molecules from patent US20150056219A1 (published 2015).

T1: human HVEM (human, UniProt Q92956 39-202)
T1 chain: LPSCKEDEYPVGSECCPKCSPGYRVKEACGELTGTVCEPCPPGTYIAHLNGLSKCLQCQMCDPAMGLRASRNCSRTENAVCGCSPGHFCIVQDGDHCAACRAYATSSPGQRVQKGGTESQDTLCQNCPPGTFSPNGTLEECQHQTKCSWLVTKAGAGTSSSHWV

T2: mouse HVEM (mouse, UniProt Q80WM9 39-206)
T2 chain: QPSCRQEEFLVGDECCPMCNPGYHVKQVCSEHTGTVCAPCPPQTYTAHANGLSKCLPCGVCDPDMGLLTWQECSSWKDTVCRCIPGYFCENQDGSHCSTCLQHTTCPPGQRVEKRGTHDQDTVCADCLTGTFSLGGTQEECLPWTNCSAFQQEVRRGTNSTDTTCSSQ

B1: m4-16 (protein)
chain: RRSHEVNPAAHLTGANFSLTGSGGPLLWETQLGQAFLRGLSYHDGALVVTKAGYYYIYSKVQLGGVGCPLGLASTITHGLYKRTPRYPEELELLVSQQSPCGRATSSSRVWWDSSFLGGVVHLEAGEEVVVRVLDDRLVRLRDGTRSYFGAFMV
B2: m4-7 (protein)
chain: B1 chain with F17S, L19S, Q34L, G64R, D136E
B3: m4-14 (protein)
chain: B1 chain with F17S, Q34L, R38S, G64R, D135G, D136E
B4: wild type human LIGHT (ligand)
chain: LIQERRSHEVNPAAHLTGANSSLTGSGGPLLWETQLGLAFLRGLSYHDGALVVTKAGYYYIYSKVQLGGVGCPLGLASTITHGLYKRTPRYPEELELLVSQQSPCGRATSSSRVWWDSSFLGGVVHLEAGEKVVVRVLDERLVRLRDGTRSYFGAFMV
B5: wt (ligand)
chain: B4 chain
B6: hLTbR (receptor)
chain: QAVPPYASENQTCRDQEKEYYEPQHRICCSRCPPGTYVSAKCSRIRDTVCATCAENSYNEHWNYLTICQLCRPCDPVMGLEEIAPCTSKRKTQCRCQPGMFCAAWALECTHCELLSDCPPGTEAELKDEVGKGNNHCVPCKAGHFQNTSSPSARCQPHTRCENQGLVEAAPGTAQSDTTCKNPLEPLPPEMSGTMLM
B7: mHVEM (receptor)
chain: T2 chain
B8: mLTbR (receptor)
chain: QLVPPYRIENQTCWDQDKEYYEPMHDVCCSRCPPGEFVFAVCSRSQDTVCKTCPHNSYNEHWNHLSTCQLCRPCDIVLGFEEVAPCTSDRKAECRCQPGMSCVYLDNECVHCEEERLVLCQPGTEAEVTDEIMDTDVNCVPCKPGHFQNTSSPRARCQPHTRCEIQGLVEAAPGTSYSDTICKNPPEPGAMLL
B9: hHVEM (receptor)
chain: T1 chain

Where a chain is given by its changes, count along the chain named.

In the first assay the target is T1, human HVEM.
The molecule B1 returned a Kd of 2.24 nM.
B2 registered a Kd of 0.92 nM.
Same read-out and setting: then B3, with 38.5 nM.

The next assay addresses human LTβR (human, UniProt P36941 31-227).
For the molecule B1, the dissociation constant (Kd) was found to be 0.13 nM.
The same measure, in the same setting: then B2, with 0.157 nM.
Same read-out and setting: then B3, with 0.16 nM.
Same read-out and setting: then B4, with 1.3 nM.

The target in another assay is mouse LTβR (mouse, UniProt P50284 31-223).
B1 returned a Kd of 0.192 nM.
Same read-out and setting: then B2, with 0.118 nM; and B3, with 0.094 nM.

A further assay deals with T2, mouse HVEM.
On to B1, for which the Kd was 2.22 nM.
The same measure, in the same setting: in the case of B2 it was 5.03 nM; in that of B3, 0.29 nM.

In the next assay the target is DcR3.
Molecule B5 registered a Kd of 0.6 nM.

The target of a further assay is m4-52.
Regarding B6, the Kd amounted to 1.12 nM.
On to B7, for which binding was characterised by a dissociation constant (Kd) of 2.44 nM.
For the molecule B8, the dissociation constant (Kd) turned out to be 0.68 nM.
The same measure, in the same setting: in the case of B9 it was 1.42 nM.
